Experimental data published in patent publication US8940871 (University of California, dated 2015).
Values belong to the molecule of their own block, whether it stands above or below them.

Tests used:
[1] = molecular target: PSCA (form used in Biacore not stated) (UniProt O43653); assay: Biacore, apparent affinity
[2] = molecular target: PSCA on cells (PSCA-transfected B-cell line, LNCaP prostate cancer cells, SKW-PSCA+ cells) (human) (UniProt O43653); assay: immunoreactivity of radioiodinated diabody
[3] = molecular target: T1, purified PSCA-Fc (UniProt O43653 12-86); assay: competition ELISA, wells coated with PSCA-Fc
T1 construct: The construct is described only by a literature citation; not shown: Fc part not described
T1 sequence (looked up): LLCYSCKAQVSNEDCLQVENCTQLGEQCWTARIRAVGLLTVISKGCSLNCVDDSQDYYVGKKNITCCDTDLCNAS
Procedure: To examine the structural characteristics of the 2B3 minibody, SDS-PAGE was conducted under reducing and non-reducing conditions. The minibody migrated with a MW of ~47 kDa under reducing conditions and ~95 kDa under non-reducing (FIG. 2). […] The minibody's apparent affinity with respect to its intact antibody counterpart and the original mouse monoclonal antibody (1G8), was determined by competition ELISA.
PSCA relative binding affinity for the minibodies was determined by competition ELISA in which microtiter plate wells were coated with purified PSCA-Fc (Z Gu, T. Olafsen et al. 2006).

[4] = molecular target: T2, PSCA (form used in Biacore not stated) (UniProt O43653 12-86, limits assumed); assay: method not stated; humanized antibody compared with murine 1G8
T2 construct: The antigen preparation for the Biacore measurements and for the 4-fold statement is not described; also called prostate stem cell antigen
T2 sequence (looked up): T1 sequence (looked up)

[5] = molecular target: T2, PSCA (form used in Biacore not stated); assay: Biacore, apparent affinity; parental diabody, not affinity matured

Kd [1]: 1.89 nM
immunoreactivity [2]: 22%
Molecule: affinity matured 2B3 anti-PSCA diabody (scFv dimer, eight amino acid linker)

fold lower affinity than the intact 2B3 antibody [3]: ~2 fold
fold lower relative affinity than the murine antibody (1G8) [3]: 9.2 fold
B1: humanized anti-PSCA minibody (2B3 scFv-CH3 dimer) (other)
chain: DIQLTQSPSSLSASVGDRVTITCSASSSVRFIHWYQQKPGKAPKRLIYDTSKLASGVPSRFSGSGSGTDFTLTISSLQPEDFATYYCQQWSSSPFTFGQGTKVEIKGSTSGGGSGGGSGGGGSSEVQLVESGGGLVQPGGSLRLSCAASGFNIKDYYIHWVRQAPGKGLEWVAWIDPENGDTEFVPKFQGRATISADTSKNTAYLQMNSLRAEDTAVYYCKTGGFWGQGTLVTVSSEPKSCDKTHTCPPCGGGSSGGGSGGQPREPQVYTLPPSRDELTKNQVSLTCLVKGFYPSDIAVEWESNGQPENNYKTTPPVLDSDGSFFLYSKLTVDKSRWQQGNVFSCSVMHEALHNHYTQKSLSLSPGK
notes: Covalent dimer of about 95 kDa; also called 2B3 minibody; parental minibody

fold reduction in affinity (against murine 1G8) [4]: 4 fold
B2: humanized 2B3 anti-PSCA antibody (intact) (antibody, V domains shown)
VH: EVQLVESGGGLVQPGGSLRLSCAASGFNIKDYYIHWVRQAPGKGLEWVAWIDPENGDTEFVPKFQGRATISADTSKNTAYLQMNSLRAEDTAVYYCKTGGFWGQGTLVTVSS
VL: DIQLTQSPSSLSASVGDRVTITCSASSSVRFIHWYQQKPGKAPKRLIYDTSKLASGVPSRFSGSGSGTDFTLTISSLQPEDFATYYCQQWSSSPFTFGQGTKVEIK
notes: Intact humanized antibody; also called intact 2B3 antibody; humanized 2B3 antibody

Kd [5]: 5.41 nM
B3: parental 2B3 anti-PSCA diabody (scFv dimer, eight amino acid linker) (scFv)
scFv: DIQLTQSPSSLSASVGDRVTITCSASSSVRFIHWYQQKPGKAPKRLIYDTSKLASGVPSRFSGSGSGTDFTLTISSLQPEDFATYYCQQWSSSPFTFGQGTKVEIKGGGSGGGSEVQLVESGGGLVQPGGSLRLSCAASGFNIKDYYIHWVRQAPGKGLEWVAWIDPENGDTEFVPKFQGRATISADTSKNTAYLQMNSLRAEDTAVYYCKTGGFWGQGTLVTVSS
notes: also called parental diabody; 2B3 diabody
